Data from US20220267443A1.

Target: CTLA-4-Ig
Test: -; modified from Xu et al., JI 2012

Kd [nM] | Substance
0.3 | CD80-Fc-His
3.6 | CD86-Fc-His
